# Experimental data: PMC3543869
# T1: recombinant rat apolipoprotein E (rat), P02650
# T1 chain: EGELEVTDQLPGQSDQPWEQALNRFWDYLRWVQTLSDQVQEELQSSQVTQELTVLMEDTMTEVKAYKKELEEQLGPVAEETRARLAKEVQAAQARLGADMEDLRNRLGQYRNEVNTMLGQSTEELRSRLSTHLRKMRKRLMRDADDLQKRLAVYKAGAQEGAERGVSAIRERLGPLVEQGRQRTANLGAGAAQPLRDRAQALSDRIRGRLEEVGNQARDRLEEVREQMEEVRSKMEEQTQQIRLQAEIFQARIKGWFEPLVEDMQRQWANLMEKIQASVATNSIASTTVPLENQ
# Biological target: T1, recombinant rat apolipoprotein E (rat), …
# Assay: SEC
# Details: remark: other sources report otherwise
binder,measurement,value
"recombinant rat apolipoprotein E, P02650 19-312 (natural protein) EGELEVTDQLPGQSDQPWEQALNRFWDYLRWVQTLSDQVQEELQSSQVTQELTVLMEDTMTEVKAYKKELEEQLGPVAEETRARLAKEVQAAQARLGADMEDLRNRLGQYRNEVNTMLGQSTEELRSRLSTHLRKMRKRLMRDADDLQKRLAVYKAGAQEGAERGVSAIRERLGPLVEQGRQRTANLGAGAAQPLRDRAQALSDRIRGRLEEVGNQARDRLEEVREQMEEVRSKMEEQTQQIRLQAEIFQARIKGWFEPLVEDMQRQWANLMEKIQASVATNSIASTTVPLENQ",stoichiometry N,4
